# B1: ALT02-01: nucleotide sequence SEQ ID NO: 21 encoding ALT02, based on soybean codon usage bias (nucleic acid)
# DNA: ATGGAGACTGATAACGTGGAACTCGCCCAATCTAAGAGAAAGGTGGTGCTGGCTGAACAAGGGTCATTTTACATAGGGGGTAGGACTGTTACTGGTCCTGGCAAGTTTGATCCATCCAAACCTGTGATACCCTACAGTAACGAAGGAGCAACATTCTATATTAACCAAATGTATGTTAACTTCCAGGCCCCAGTGAGACCTAGGGGACTTCCATTGGTTTTCTGGCATGGAGGTGGCTTGACTGGTCACATCTGGGAGTCTACACCTGACGGCAGACCCGGGTTTCAAACCCTCTTCGTTCAGGATAGGCATACCGTGTACACTATTGACCAACCTGGGAGAGGAAGGGGTAACATCCCAACTTTTAACGGACCTTTCGGACAGTTGGAGGAAGAGAGTATTGTTAACACTGTGACAGGAAATTCTTCAAAGGAAGGTGCCTGGGTGAGAGATAGGCTTGGCCCTGCTCCCGGGCAATTTTTCGAGAACTCTCAGTTTCCTAGAGGCTATGAAGACAATTACTTTAAGGAGATGGGATTCAGCCCATCTATATCCAGTGATGAAATTGTTGACGCTGTTGTGAAACTCGTGACCCATATTGGTCCTTGTGTTCTGGTGACTCACTCAGCATCCGGCGTTCTTGGGATGAGAGTGGCTACACACGCAAAGAATGTTAGGGGAATTGTGGCCTATGAACCAGCTACCTCAATCTTCCCCAAGGGAAAAGTTCCAGAGATACCACCTCTCGCTGATAAGAAAAGCCAAATCTTTCCCCCATTCGAAATACAGGAGTCTTACTTTAAGAAACTTGCCAAGATTCCAATCCAATTTGTTTTCGGAGATAACATCCCCAAGAATCCAAAATCAGCATATTGGTTCCTGGACTGGTGGAGAGTGACAAGATACGCACATAGTCTCAGCCTGGAGGCCATAAACAAATTGGGGGGACAAGCTTCCCTTTTGGATCTTCCTACTGCAGGATTGAGAGGTAATACACACTTTCCCTTCACCGATAGGAACAATGTTCAGGTGGCTTCTCTCCTGTCAGACTTTCTGGGTAAACACGGTCTGGATCAAAATGAGAGCAAACTCGCCGCCGCCCTGGAATGA
# modifications: the ALT02-01 nucleotide sequence encoding the amino acid sequence corresponding to the ALT02 and based on the soybean codon usage bias
# System: soybean plants
# Test: Herbicide tolerance of transgenic soybean T1 plants (spraying, damage degree)
# Format: in vivo
# Conditions: sprayed with tribenuron-methyl 144 g ai/ha, eight-fold field concentration
# Procedure: The degree of damage caused by the herbicide was measured for each plant according to the leaf curl degree and the growth point damage degree 3 days after spraying (3 DAT), 7 days after spraying (7 DAT), 14 days after spraying (14 DAT) and 21 days after spraying (21 DAT): the case where the leaves are flat as untreated plants and the growth points are intact is defined as having a damage degree of 0%; the case where veins are locally browned, new leaves are malformed and plant growth is slow is defined as having a damage degree of 50%; and the case where veins are purple, until the whole plant is dead and the growth points are browned and dry is defined as having a damage degree of 100%. The soybean plants into which the ALT02M1-01 nucleotide sequence was introduced were of three strains in total (S1, S2 and S3), the soybean plants into which the ALT02M2-01 nucleotide sequence was introduced were of three strains in total (S4, S5 and S6), the soybean plants into which the ALT02M3-01 nucleotide sequence was introduced were of three strains in total (S7, S8 and S9), the soybean plants into which the ALT02-01 nucleotide sequence was introduced were of three strains in total (S10, S11 and S12), the control soybean plants were of two strains in total (S13 and S14), and the wild-type soybean plants were of one strain in total (CK1); and 10-15 plants were selected from each strain and tested.
molecule,measurement,value
B1,herbicide tolerance imparted to transgenic soybean plants,impart transgenic soybean plants with the tolerance to benzenesulfonic acid

# — patent US12385058B2, “Herbicide tolerance protein, encoding gene thereof and use thereof” (Beijing Dabeinong Biotechnology Co., Ltd., priority 2018, dated 2025)
